According to the supplement of paper PMC12636428:

These sequences were tested on Saccharomyces cerevisiae (assay: transcriptional activation domain activity (GFP:mCherry ratio, weighted mean of sorted bins, harmonized to initial dataset scale) (arbitrary fluorescence ratio units); higher = stronger transcriptional activation). Conditions: beta-estradiol 1 µM; induction time 4 h.
Outline: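 Yeast diploids with a GFP reporter received barcoded protein tiles, fused to an estradiol-inducible synthetic transcription factor, at the URA3 locus. Cultures were diluted 1:5 into SC holding 1 uM beta-estradiol, incubated 4 hours at 30 °C, sorted into 8 bins on GFP:mCherry ratio, and sequenced for barcodes, with tiles under 50 reads discarded. Activation activity values come from the read-weighted mean of bin median fluorescence, averaged across barcodes and linearly placed on the initial dataset scale.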

Going from “MYCVSFSHFYPPPLSFFHYGFDIFLFIFLIFFFCCPFLFAQVVVGYAICWYHT” to “SKHEDQKSRRSRDEKDRGSRSSRHREDGHRSHRDRSRSRDRHHRSSKHHERRR”, the “transcriptional activation domain activity” value falls from 51300 to 27700.

Compared with “NNLLELITDIIIALDMNFVNCMTCVDDDEKALMTLRICEYFIDRLVRTIMVAT”, “ETAPATEEKPVEETKPAEEAAKTEEEKKEDEAKPIEEGHLNHKAQGLSFPKNL” is higher in “transcriptional activation domain activity” value: 51300 for the first, 55000 for the second.

First: EEGERKGEGGKEKWERDAVGNGGRGRQGGEQEEEREEGAGGRGKGGGGRSRGK
Second: MLTEFCFNMLGRHDGKGLISNAVLNAWLKQLSDYFRARFTIWCRINILMDLYR
The “transcriptional activation domain activity” value of the first is higher: 45900 for the first, 42100 for the second.

Compared with “GGISKGENAHNFQNDTKKNMSTSNLFPFSFSNTDLTALFTHPEGPNCTNTNNG”, “MVLSILEIICAVVVLHPSCNYHIFSQCICEFSSWSFAISALLVVVLFWAAVAR” is lower in “transcriptional activation domain activity” value: 56600 for the first, 56000 for the second.

Going from “SGIYSGGLSLWTAFFLGYFKAFLWGSFWGWLAGYFVLLFVICVAWNPFFFLYL” to “MNQTSRFFSPFFLFLFLLFLSFLSPPPFLPSSLPFLLFLPFLPLSLSLLSLIF”, the “transcriptional activation domain activity” value falls from 57600 to 15400.

Going from “MRILGCVVNAHLKQMIHRNSLLIIPECPRMFWLGCQTRCVVLGEWIGLHANRF” to “YMYLVIVVTFLSILKTSQAIAVVWVQNVLFFANPDIARTLLNIAWWQNSVTLM”, the “transcriptional activation domain activity” value falls from 69300 to 54800.

First: MQIVLYLHCKVCFIYFHCLLLDFRSFLHIQRPQEPWIAYIFPTTACVSPQTRR
Second: MLFVCFFWLWGWWLVVVVFVFLFFSFFLLLSSEFTDPFAFFCLFFFVLLHFSF
The “transcriptional activation domain activity” value of the first is higher: 55300 for the first, 44000 for the second.

Going from “EEEAELAKPAKRPRESDATERDASTGDEVSKKKSKKLKAENGAPVAAPAGTSG” to “YADMLMRIWSVWEFALWQYVSNEEFMGLLGFSRLRFRRMYLLVNNGCLFWRIF”, the “transcriptional activation domain activity” value rises from 39300 to 72400.

Going from “LLFVTDWALVGLGRFSESCIFFFLFSLWYNFCLHRFFISPTLYSSLTWHCVTS” to “KFNNRLSSDSTSPIKYEADVSAGGKISEDNSTKGSSKESSAIADELDWLKFGI”, the “transcriptional activation domain activity” value falls from 42800 to 40600.

Going from “MLRDYWLILIVNCQTIGCKLPIVMWSPLCLFLTLNHGLLWLWMCLALRFFSLF” to “MITQILYLDLLHPLHCHFFFFFSFFSSLIVVSVIITRLYFFFFSHLVIFCPFL”, the “transcriptional activation domain activity” value rises from 35000 to 54600.

First: AGAAAASTAAEADGEKDGEEGETKPAAPAKKPRKARAKKQVKSEEKAVEEATG
Second: RHLAEAGLGIAAAGAAKELYDHRRRSRSRSSDSSRSRSRSQSHTGRHVAAAAL
The “transcriptional activation domain activity” value of the first is lower: 19300 for the first, 45800 for the second.

Going from “PGEVSEAEANGDAPKVEAAAKPKKKKKKAARKPKTKEEDGAPAAAPTEEAAPA” to “EDGNGHGTHCSGTIAGKKYGVAKKAHVYAVKVLRSNGSGSMSDVVKGVEFAAT”, the “transcriptional activation domain activity” value rises from 10100 to 42400.

First: MKLPWDDSVTIFLVNYVDFLLLFPFVLLMEFIFDDLPWLSLYVLKHYYNILYM
Second: MREDITQIDLITFYLCIFLSITVFVELIILCWIRILSIFNVCLFALLLCQLVY
The “transcriptional activation domain activity” value of the first is higher: 38600 for the first, 33700 for the second.

First: NELAVLVDGLNRVLLTHKDDIGIISHVMLAYMIAATRFKRLFVSGGGYMLFMP
Second: SILLMQHNLYHFIHFFKKIRQVIEKGEYPSFKQELIQNLGQTGWWKFLNAKSL
The “transcriptional activation domain activity” value of the first is lower: 45800 for the first, 59500 for the second.

Compared with “SHPDIMDAAVIGVEGEGTEVPRAYVVADRKKVNEKKVQEWVKGRTARNKRLRG”, “VFCMLYTLLHILAACLHYHCFSHLAPPYQTLLWYSYFNVIIVGLLLFWYCELV” is higher in “transcriptional activation domain activity” value: 25900 for the first, 35100 for the second.

Going from “ELGLGSWWVFIVLGHTSVLLELAPRYSFALYFLPVFLLTVTVVSFFFAFVLYL” to “QSQPAKQPAKQPATKKSSKSKGSKKSKGSKGKGSRGSKSKAKGSRSKAKGKAH”, the “transcriptional activation domain activity” value falls from 41100 to 23600.

Compared with “GLRNERHFVLFMAYFVLSCWCFCTLGYSYMYLSLDFTQDWPHWPGRTPFILIY”, “VIIQLQKLFLVSISLKLVQRISSLNQLFKTSVASLPAIGNLFLLWATLFIFFA” is lower in “transcriptional activation domain activity” value: 54000 for the first, 53000 for the second.

Going from “KVAYRNPAADSEGWRRWGNDEARHGTLGVEEMERRIEALRKAKVGGGMVKVGF” to “QGIEPLLPPKWGMLVGEARDLLVLFGALGEQERWNFWTTGCSYMTAMVLLTAN”, the “transcriptional activation domain activity” value rises from 35500 to 53000.

Going from “MSAFSGEDAPSPEGLDRKRKRQRTALSCTECKRRKIKCDRSQPCSSCIRRKVP” to “MFLTLLLGISLLPSLVIVYHLPHSLSFFFPPFLPFLLLPSILFLPGPFLRTAR”, the “transcriptional activation domain activity” value rises from 42300 to 64000.

Going from “MLCFIDLLIFGISLCFLSLLLFLSFFLLFFFFFLVFSEEFVLLHSAAWSFILS” to “DSDSEEEEEGWQLSPHDVDKVRQMLEPDEVSLQRALQTTPAMRIGMIIWLVIT”, the “transcriptional activation domain activity” value rises from 41200 to 53000.

First: GKPRGYAFVEYEREKDMKAAYKEGDGMKITGRRVVVDVERGRTVKGWKPRRLG
Second: EEERGEERREGEERVEQGEEGAGGEGDEEGRSAEHGAGGELAERRGEAGDAEV
The “transcriptional activation domain activity” value of the first is higher: 36700 for the first, 22900 for the second.

Going from “CVCVGVGIGVGGLVLPLLFFLSFTSFSSLVTFLFSLSFPFSFFLFFLSFFLGL” to “DCSSILFSPLTTNTNNEFEGESDDFVHSPYLNSEADFSQILSSAPPVHHDPNE”, the “transcriptional activation domain activity” value rises from 46000 to 72800.

Going from “YLAYCWQPDISWCPNLTLLNHWYNLTPYWFILMFIWNNLSCILMMINMIQLYF” to “TEEDAINQSKESNMISINEMLQKQMDFELLGENHLKETQDYLALYKKAYGIEF”, the “transcriptional activation domain activity” value rises from 67800 to 113000.

First: LLLLLVYSNVALLVYHAPTYTRPFDMALIHAPLRFFMILPLSLLFPYSLFITL
Second: MLLFFSFSLCRFLFLSLLLVFLMDAFSFLCFLLIQPPLPCLRSFFSLFLIFVL
The “transcriptional activation domain activity” value of the first is higher: 57700 for the first, 38900 for the second.

Compared with “RIVGESASTHAVCVSLPRDVYQASDGEEDLMGSVPQVLPALVCSCTRASSIVH”, “MGIGIHTFFYFWLLIFLFLFLFLFFSWFFFFVIVIIFFNYFIFLRAWMWIAGL” is lower in “transcriptional activation domain activity” value: 68500 for the first, 41600 for the second.

Going from “PRNSWIKWAFLFARYFPLLAGLCGRVIDSIVLYRQPIPIPLNALRIWYICQVL” to “MINFWLFIFLSSSLLFLPFFFLYIFFNYYYFFLFTQYIMVTWFFENYQFANAW”, the “transcriptional activation domain activity” value rises from 52500 to 56200.

Compared with “LVGLDGRAKINCHFFAYVAFGSASLLVVFHVAFLINVSDVVLLLVMLVGLLRL”, “EFVRTSHGRLPAGKRLVKGGYEEDGTPLYHGMAIHEGIKVPGKISHRLYVLQS” is higher in “transcriptional activation domain activity” value: 31900 for the first, 43700 for the second.

Compared with “MLRCVFFLYCFLLVTFFSSRRVLVCAGAYLSSSYPLMPDCQYWVYFAFLRCFS”, “PAPKKRAPRKRKANAATVEGEAEDNEAEGAAAAAPPKKRARTRKAAAAAAEPS” is lower in “transcriptional activation domain activity” value: 52400 for the first, 41700 for the second.

First: VGEEGEEKESMRVRVREEMVAQATSLAFLRNVNAIGEETTSLLDTAARLVRIG
Second: LIVSWSGNYVVQHHSTRINLIDFMDSNYISHLCVYLGFSIADVCYQLTMLWMI
The “transcriptional activation domain activity” value of the first is lower: 63700 for the first, 77700 for the second.

Compared with “MRKFLFQSFDILYLLIFLSFFFILSLFFFILIIFGSSPFIYFIFYFNHFFFFD”, “VYTDLIRIIGDTKPILLDNYHNAMRRTMSVVIGFRVFYYHNEWHRAKGFIRKA” is higher in “transcriptional activation domain activity” value: 26900 for the first, 38400 for the second.

Compared with “REGRKKGREAREKRSGGKGGKGGKGKGRATDGAEGAEEGAAAGARQPNGRNAK”, “MPLVRRLGAGGDRGAGTVRVRVATSSHTPHHLKVVVLSKVPFLLPDIVVDRMQ” is lower in “transcriptional activation domain activity” value: 22200 for the first, 12900 for the second.

Going from “TRSKKSAPRTSESSEDEEQRPSSRPSSRASRPASRASASRKRSDSTGTAGGGE” to “MSAATATKPPATGTTPRREATSRASAPSPAAASRTPARSSTPTATASATTSSP”, the “transcriptional activation domain activity” value rises from under 6570 to 18000.

Going from “LNVQLVYLIHSVLSIVIDFTFKRVEGDMDEWVVSGFSDRFERRITFARLYCNK” to “NGHGTHCSGTVAGKKYGVAKKANVYAVKVLRSNGSGTMSDVVKGVEEAVKMHN”, the “transcriptional activation domain activity” value falls from 49000 to 37500.

Compared with “AAGPGNNDLDDTDTDNQQFFLSDMNLNGSSVFENVFDDDDDDDDVETHSIVHS”, “TYTPPVEKPDVEEQSRTRLIGLAALNGASSSEGAFSSSTEFPRQVRVIVPALL” is higher in “transcriptional activation domain activity” value: 28900 for the first, 39800 for the second.

Compared with “MSMLQVQWCYVMLYFDLSTSELLYFYLYLIFYSSFLFFNLWWLLNVDDASAPA”, “MTLCTFFGCLLTAYSPLLSIFFLYIAPNAQYVLLMVASAFFCLLALLLSSVIW” is higher in “transcriptional activation domain activity” value: 41500 for the first, 55000 for the second.

Going from “LWYRFQVVMIRRYHFHFHLLGYRMTYLRFIQFLNIWYFFIAIACLLFIIVIGA” to “MDVGIYVCICFDGLFSFGEFFYVVYTSFINHTIEFLCLFGFHFLFWVLIFFWV”, the “transcriptional activation domain activity” value rises from 46300 to 50900.

Compared with “QHKKRRAEQAGRGEKAEADGSQARRKAEDRREEQQRAKQSAGQKEQEKVKAEQ”, “SYQHLHSVMKVINCLNLMLVVCYFSDVRYLKVLVKFWNELHNDVVSRNKLIIV” is lower in “transcriptional activation domain activity” value: 56000 for the first, 42300 for the second.

Compared with “IVLYLRCFWLSVMFYTYSLFFIKMTFLLNYYRLLLVSKMRSVCIAAIVIIVLW”, “SEAVDFEVPDDFVVSWTGDLLPHTIIYCDFPPPMSVALFEPQPSDMDFDWFWI” is lower in “transcriptional activation domain activity” value: 72100 for the first, 71600 for the second.

Compared with “PAAATPAVSIGLIYLIIMAFFSFSFFLPIHMKYIQPQGHPPLHFWQLIIWRWL”, “RKGEGEGSEPPHPAEPRRLRRSHEACARCRSKKIKCDSKHPRCTACATAGTPC” is lower in “transcriptional activation domain activity” value: 52700 for the first, 23800 for the second.

First: VRTVIESNRRLNLAVVSKSQRWRCSKIWIPGLLMHVFNFWCIVYMITFNAVWD
Second: PAPAAERREFEEELEARAPGGRGGFRGPRGGPRGPAPAPAPPAAERREFIEDL
The “transcriptional activation domain activity” value of the first is higher: 49800 for the first, 28600 for the second.

First: SMDQIREYNTRLQLVNAQSFDYTDNPYSFNVGINQDSAVFDLMTSPFTQEEVL
Second: APFSKGPRMWNEVYITSLAHGCLVNRLFCSLAWCELYLIFGNIFRRLDLKLFV
The “transcriptional activation domain activity” value of the first is higher: 112000 for the first, 58100 for the second.

With “GAAAASGTKPKPTAAGGAAGAAAASGAKPKPTAAGAAGAAAASGAKPKPTGAA” the “transcriptional activation domain activity” value was 15300.
